Data on nine molecules can be found in patent US20180298098A1 (VAR2 PHARMACEUTICAL, published 2018).

For assay [1], the target named is CSPG (bovine) (D8428, Sigma) (bovine) (UniProt P21793). Put plainly: quartz crystal microbalance (Attana A100), CSPG coated; FCR3 Baculo.
Assay [2] has the same target. The assay can be described thus: quartz crystal microbalance (Attana A100), CSPG coated; 3D7 Baculo.
Assay [3] has as its target T1, CSPG (bovine) (D8428, Sigma) (bovine, UniProt P21793 31-360, carries chondroitin sulfate A (CSA) glycosaminoglycan chain(s); attachment site not stated).
T1 construct: Commercial proteoglycan coated on the chip or plate; also called chondroitin sulfate proteoglycan; CSA proteoglycan (CSPG)
The description is as above.

Assay [4] has as its target T1, CSPG (bovine) (D8428, Sigma). Put plainly: quartz crystal microbalance (Attana A100), CSPG coated.
Method: All buffers and reagents were filtered to 0.2 μm. The ligand was CSPG (Bovine) (D8428, Sigma) or HSPG (H4777, Sigma), coated at a concentration of 100 μg/ml. Coating was done in steady state by adding ligand solution and incubation 30 minutes at room temperature. This was followed by blocking the plate with PBS containing 0.1% Ig-free BSA (BSA-50, Rockland), 30 minutes at room temperature. The Attana A100 was washed with 1% SDS prior to every experiment, using the manufacturers predefined daily wash program. Following the wash, the running buffer was switched to PBS at a flow rate of 25 μL/min, at 25° C., and the machine was allowed to stabilize at a maximum change in frequency of 0.5 Hz/min. […] Prior to sample injection PBS was injected as a blank. Analyte was injected in a 1:3 dilution series (0.25 μg/ml-60 μg/ml) starting with the lowest concentration. Association time was set to 84 seconds and disassociation time to 5 minutes. […] The data collected was processed in the Attester Evaluation software (Attana AB). Curves were fitted in a simple 1:1 model. kₒₙ and koff were determined by curve fitting and KD was calculated based KD=koff/kₒₙ.

One may read the Kd as the free concentration of one partner at which half of the binding sites on the other are occupied at equilibrium, for simple one-to-one binding. The low end stands for a tighter complex, the high end for a looser complex.

Chain of CSPG (bovine) (D8428, Sigma) (bovine) (P21793 31-360): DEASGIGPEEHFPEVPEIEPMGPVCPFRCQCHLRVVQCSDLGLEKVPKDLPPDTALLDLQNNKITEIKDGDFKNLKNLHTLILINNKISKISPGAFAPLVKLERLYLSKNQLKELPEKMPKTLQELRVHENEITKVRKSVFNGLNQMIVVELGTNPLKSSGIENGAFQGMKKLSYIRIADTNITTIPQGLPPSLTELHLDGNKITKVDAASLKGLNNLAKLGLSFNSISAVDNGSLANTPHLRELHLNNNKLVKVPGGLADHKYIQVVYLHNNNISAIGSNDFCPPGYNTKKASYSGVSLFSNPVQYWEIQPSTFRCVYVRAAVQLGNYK
T1 sequence (P21793 31-360): as above

VAR2CSA ID1-DBL4ε, FCR3 (Baculo) returned a Kd in assay [1] of 8.6 nM.
Same read-out and setting: in the case of VAR2CSA DBL2X-DBL4ε, FCR3 (Baculo) it was 2.4 nM; in that of VAR2CSA ID1-DBL3ε, FCR3 (Baculo), 0.3 nM; in that of VAR2CSA FV2, FCR3 (Baculo), 5.2 nM.
Turning to VAR2CSA DBL1-ID2b, FCR3 (Baculo), the Kd in assay [1] is 1.5 nM.
Molecule VAR2CSA FV2, 3D7 (Baculo) had a Kd in assay [2] of 8.2 nM.

B1: VAR2CSA ID1-DBL2Xb, 3D7 (Baculo) (other)
chain: NYIKGDPYFAEYATKLSFILNSSDANNPSEKIQKNNDEVCNCNESGIASVEQEQISDPSSNKTCITHSSIKANKKKVCKHVKLGVRENDKDLRVCVIEHTSLSGVENCCCQDFLRILQENCSDNKSGSSSNGSCNNKNQEACEKNLEKVLASLTNCYKCDKCKSEQSKKNNKNWIWKKSSGKEGGLQKEYANTIGLPPRTQSLCLVVCLDEKGKKTQELKNIRTNSELLKEWIIAAFHEGKNLKPSHEKKNDDNGKKLCKALEYSFADYGDLIKGTSIWDNEYTKDLELNLQKIFGKLFRKYIKKNNTAEQDTSYSSLDELRESWWNTNKKYIWLAMKHGAGMNSTTCCGDGSVTGSGSSCDDIPTIDLIPQYLRFLQEWVEHFCKQRQEKVKPVIENCKSCKESGGTCNGECKTECKNKCEVYKKFIEDCKGGDGTAGSSWVKRWDQIYKRYSKYIEDAKRNRKAGTKNCGPSSTTNAAENKCVQSDIDSFFKHLIDIGLTTPSSYLSIVLDDNICGADKAPWTTYTTYTTTEKCNKETDKSKLQQCNTAVVVNVPSPLGNTPHGYKY
notes: The 3D7 forward primer begins at LSFILN; not shown: C-terminal V5 and His tag of the modified pAcGP67-A vector
In assay [3], B1 gave an equilibrium dissociation constant (Kd) of 21.8 nM.

B2: VAR2CSA ID1-ID2a, 3D7 (Baculo) (other)
chain: NYIKGDPYFAEYATKLSFILNSSDANNPSEKIQKNNDEVCNCNESGIASVEQEQISDPSSNKTCITHSSIKANKKKVCKHVKLGVRENDKDLRVCVIEHTSLSGVENCCCQDFLRILQENCSDNKSGSSSNGSCNNKNQEACEKNLEKVLASLTNCYKCDKCKSEQSKKNNKNWIWKKSSGKEGGLQKEYANTIGLPPRTQSLCLVVCLDEKGKKTQELKNIRTNSELLKEWIIAAFHEGKNLKPSHEKKNDDNGKKLCKALEYSFADYGDLIKGTSIWDNEYTKDLELNLQKIFGKLFRKYIKKNNTAEQDTSYSSLDELRESWWNTNKKYIWLAMKHGAGMNSTTCCGDGSVTGSGSSCDDIPTIDLIPQYLRFLQEWVEHFCKQRQEKVKPVIENCKSCKESGGTCNGECKTECKNKCEVYKKFIEDCKGGDGTAGSSWVKRWDQIYKRYSKYIEDAKRNRKAGTKNCGPSSTTNAAENKCVQSDIDSFFKHLIDIGLTTPSSYLSIVLDDNICGADKAPWTTYTTYTTTEKCNKETDKSKLQQCNTAVVVNVPSPLGNTPHGYKYACQCKIPTNEETCDDRKEYMNQWSCGSARTMKRGYKNDNYELCKYNGVDVKPTTVRSNSSKLD
notes: not shown: C-terminal V5 and His tag of the modified pAcGP67-A vector
For B2, binding in assay [3] was put at a Kd of 5.7 nM.

B3: VAR2CSA ID1-DBL2Xa, 3D7 (Baculo) (other)
chain: LSFILNSSDANNPSEKIQKNNDEVCNCNESGIASVEQEQISDPSSNKTCITHSSIKANKKKVCKHVKLGVRENDKDLRVCVIEHTSLSGVENCCCQDFLRILQENCSDNKSGSSSNGSCNNKNQEACEKNLEKVLASLTNCYKCDKCKSEQSKKNNKNWIWKKSSGKEGGLQKEYANTIGLPPRTQSLCLVVCLDEKGKKTQELKNIRTNSELLKEWIIAAFHEGKNLKPSHEKKNDDNGKKLCKALEYSFADYGDLIKGTSIWDNEYTKDLELNLQKIFGKLFRKYIKKNNTAEQDTSYSSLDELRESWWNTNKKYIWLAMKHGAGMNSTTCCGDGSVTGSGSSCDDIPTIDLIPQYLRFLQEWVEHFCKQRQEKVKPVIENCKSCKESGGTCNGECKTECKNKCEVYKKFIEDCKGGDGTAGSSWVKRWDQIYKRYSKYIEDAKRNRKAGTKNCGPSSTTNAA
notes: as for B2
As for B3, the binding result in assay [4] is “no binding (tested: 0.25 µg/ml-60 µg/ml)”.
